By Km is commonly meant the substrate concentration at which the rate is half of its maximum. Broadly, the kcat is the maximal rate divided by the concentration of active sites. By kcat/Km is commonly meant the second-order rate constant that governs catalysis at low substrate concentration. As a reminder, the stoichiometry N is the number of molecules, sites or subunits per partner or assembly.

For data set [1], the system named is O=C(O)[C@H]1O[C@H](OP(=O)(O)OP(=O)(O)OC[C@H]2O[C@@H](n3ccc(=O)[nH]c3=O)[C@H](O)[C@@H]2O)[C@H](O)[C@@H](O)[C@@H]1O. Kind of data set: purified protein. Conditions: NAD+ as co-substrate, pH 8.5, 25°C, without WlbC.
Data set [2] has the same test system. Nature of the data set: purified protein. The format is biochemical, Chromobacterium violaceum. Particulars: NAD+ as co-substrate, pH 8.5 (50 mM HEPPS), 25°C, without WlbC.
In data set [3] the target is WlbA from Chromobacterium violaceum (Chromobacterium violaceum). Nature of the data set: AUC.
The target is the same in data set [4]. Nature of the data set: crystal structure.

As for “B. pertussis WlbA (Bordetella pertussis Tohama I)”, in data set [1], the Km was 2050 ± 210 µM, the kcat came out at 0.0021 ± 0.0001 s⁻¹ and the kcat/Km came to 1 M⁻¹ s⁻¹.

Turning to “C. violaceum WlbA (Chromobacterium violaceum ATCC 12472)”, in data set [2], the Km is 200 ± 20 µM, the kcat stood at 0.00015 ± 0.00001 s⁻¹ and the kcat/Km is 0.75 M⁻¹ s⁻¹.

Consider “WlbA from Chromobacterium violaceum (enzyme)”, for which the stoichiometry N in data set [3] and in data set [4] was 8 in each case.
